Assay results from patent US20250376511A1 (Sanofi, published 2025).
Substitutions are numbered along the chain they refer to.

T1: Human active C1s (Complement Technology) (human, UniProt P09871 16-688)
T1 sequence: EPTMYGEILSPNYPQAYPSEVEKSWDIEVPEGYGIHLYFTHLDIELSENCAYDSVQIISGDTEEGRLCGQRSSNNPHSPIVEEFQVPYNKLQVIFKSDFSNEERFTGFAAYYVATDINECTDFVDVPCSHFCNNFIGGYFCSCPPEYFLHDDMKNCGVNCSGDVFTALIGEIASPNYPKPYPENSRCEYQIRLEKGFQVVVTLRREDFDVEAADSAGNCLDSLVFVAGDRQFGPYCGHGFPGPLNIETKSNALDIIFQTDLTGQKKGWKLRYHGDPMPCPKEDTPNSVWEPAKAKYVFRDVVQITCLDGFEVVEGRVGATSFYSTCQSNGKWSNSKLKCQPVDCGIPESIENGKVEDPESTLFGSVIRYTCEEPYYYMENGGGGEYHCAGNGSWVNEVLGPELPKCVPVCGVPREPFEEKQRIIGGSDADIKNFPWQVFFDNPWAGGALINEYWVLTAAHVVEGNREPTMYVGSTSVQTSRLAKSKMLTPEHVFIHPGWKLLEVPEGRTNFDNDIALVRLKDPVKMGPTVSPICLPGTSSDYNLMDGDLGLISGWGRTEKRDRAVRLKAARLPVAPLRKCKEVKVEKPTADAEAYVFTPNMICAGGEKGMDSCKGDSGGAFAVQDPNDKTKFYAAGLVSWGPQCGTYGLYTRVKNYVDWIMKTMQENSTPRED

T2: cynomolgus aC1s (cynomolgus, UniProt A0A2K5VQX9 16-685)
T2 construct: also called Cyno aC1s; caC1s
T2 sequence: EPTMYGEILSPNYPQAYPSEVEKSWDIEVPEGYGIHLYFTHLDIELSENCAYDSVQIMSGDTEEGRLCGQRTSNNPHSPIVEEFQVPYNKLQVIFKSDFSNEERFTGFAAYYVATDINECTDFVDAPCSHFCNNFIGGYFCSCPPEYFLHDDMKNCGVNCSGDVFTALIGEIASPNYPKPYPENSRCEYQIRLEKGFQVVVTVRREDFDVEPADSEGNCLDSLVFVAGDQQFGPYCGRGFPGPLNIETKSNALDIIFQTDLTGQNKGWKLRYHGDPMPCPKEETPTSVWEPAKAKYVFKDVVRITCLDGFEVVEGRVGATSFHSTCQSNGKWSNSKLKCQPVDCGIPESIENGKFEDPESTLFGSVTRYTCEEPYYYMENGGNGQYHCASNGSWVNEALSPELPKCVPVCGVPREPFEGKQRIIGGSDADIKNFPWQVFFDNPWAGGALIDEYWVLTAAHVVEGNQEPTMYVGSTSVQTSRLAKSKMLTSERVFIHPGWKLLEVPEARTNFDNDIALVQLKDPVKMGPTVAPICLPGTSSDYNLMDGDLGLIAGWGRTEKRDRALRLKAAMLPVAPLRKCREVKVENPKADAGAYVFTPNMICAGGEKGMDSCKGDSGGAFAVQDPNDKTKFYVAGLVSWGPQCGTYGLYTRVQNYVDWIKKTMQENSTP

B1: aC1s_088 × 531v25 IgG4-PE/dK (bispecific antibody, V domains shown)
VH 1: QVQLVQSGAEVKKPGASVKLSCTASGFNIKDDYIHWVKEAPGQGLEWIGRIDPADGHTKYAPKFQVKVTITADTSTSTAYLELSSLRSEDTAVYYCARYGYGREVFDYWGQGTTVTVSS
VL 1: DIVLTQSPDSLAVSLGERATISCKASQSVDYDGDSYMNWYQKKPGQPPKILIYDASNLESGIPARFSGSGSGTDFTLTISSLEPEDFAIYYCQQSNEDPWTFGGGTKVEIK
VH 2: QVQLVQSGAEVKKPGASVKVSCKASGYTFTRYYLNWVRKAPGQGLEWIGMIDPSVSETHYAQKFQGRATLTVDKSTSTAYMELSSLRSEDTAVYYCSQIRLPYYYAMDSWGQGTTVTVSS
VL 2: DIQMTQSPSSLSASVGDRVTITCRASQDISSFLNWYQEKPGKAPKLLIYYTSRLQSGVPSRFSGSGSGTDYTLTISSLQPEDFATYYCQQGNTLPRTFGGGTKVEIK
notes: IgG4-PE Fc, dK, with charge pairing mutations; The starred variable domains are used, as for m5; also called aC1s_088-CM × 531v25 IgG4
B2: aC1s_088 × 531v25.v6 IgG4-PE/dK (bispecific antibody, V domains shown)
VH 1: B1 VH 1
VL 1: B1 VL 1
VH 2: B1 VH 2
VL 2: B1 VL 2 with S30E
notes: IgG4-PE Fc, dK, with charge pairing mutations; The starred variable domains are used, as for m5; also called aC1s_088-CM × 531v25.v6 IgG4
B3: aC1s_088 × 531v23 IgG1-NNAS/dK (bispecific antibody, V domains shown)
VH 1: B1 VH 1
VL 1: B1 VL 1
VH 2: B1 VH 2
VL 2: B1 VL 2 with Q55H
notes: IgG1-NNAS Fc, dK, with charge pairing mutations; The starred variable domains are used, as for m5; also called v23 variant
B4: aC1s_088 × 531v23 IgG4-PE/dK (bispecific antibody, V domains shown)
VH 1: B1 VH 1
VL 1: B1 VL 1
VH 2: B1 VH 2
VL 2: B1 VL 2 with Q55H
notes: IgG4-PE Fc, dK, with charge pairing mutations; The charge-mutated (starred) variable domains are used for both arms; also called aC1s_088-CM × 531v23 IgG4
B5: bispecific anti-aC1s (L4)/anti-TfR (531v25.v6) IgG4 antibody (bispecific antibody)
heavy 1: QVQLVQSGAEVKKPGASVKLSCTASGFNIKDDYIHWVKEAPGQGLEWIGRIDPADGHTKYAPKFQVKVTITADTSTSTAYLELSSLRSEDTAVYYCARYGYGREVFDYWGQGTTVTVSSASTKGPSVFPLAPCSRSTSESTAALGCLVKDYFPEPVTVSWNSGALTSGVHTFPAVLQSSGLYSLSSVVEVPSSSLGTKTYTCNVDHKPSNTKVDERVESDYGPPCPPCPAPEFEGGPSVFLFPPKPKDTLMISRTPEVTCVVVDVSQEDPEVQFNWYVDGVEVHNAKTKPREEQFNSTYRVVSVLTVLHQDWLNGKEYKCKVSNKGLPSSIEKTISKAKGQPREPQVCTLPPSQEEMTKNQVSLSCAVKGFYPSDIAVEWESNGQPENNYKTTPPVLDSDGSFFLVSRLTVDKSRWQEGNVFSCSVLHEALHSRFTQKSLSLSLG
light 1: DIVMTQSPDSLAVSLGERATISCKSSQSVDYEGDSYLNWYQKKPGQPPKLLIYDASNLESGVPDRFSGSGSGTDFTLTISSLQAEDVAVYYCQQSNEDPWTFGQGTKVEIKRTVAAPAVFIFPPSKKQLKSGTASVVCLLKNFYPREAKVQWKVDNALQSGNSQESVTEQDSKDSTYSLSSTLTLSKADYEKHKVYACEVTHQGLSSPVTKSFNRGEC
heavy 2: QVQLVQSGAEVKKPGASVKVSCKASGYTFTRYYLNWVRKAPGQGLEWIGMIDPSVSETHYAQKFQGRATLTVDKSTSTAYMELSSLRSEDTAVYYCSQIRLPYYYAMDSWGQGTTVTVSSASTKGPSVFPLAPCSRSTSESTAALGCLVKDYFPEPVTVSWNSGALTSGVHTFPAVLQSSGLYSLSSVVTVPSSSLGTKTYTCNVDHKPSNTKVDKRVESKYGPPCPPCPAPEFEGGPSVFLFPPKPKDTLMISRTPEVTCVVVDVSQEDPEVQFNWYVDGVEVHNAKTKPREEQFNSTYRVVSVLTVLHQDWLNGKEYKCKVSNKGLPSSIEKTISKAKGQPREPQVYTLPPCQEEMTKNQVSLWCLVKGFYPSDIAVEWESNGQPENNYKTTPPVLDSDGSFFLYSRLTVDKSRWQEGNVFSCSVLHEALHSHYTQKSLSLSLG
light 2: DIQMTQSPSSLSASVGDRVTITCRASQDIESFLNWYQEKPGKAPKLLIYYTSRLQSGVPSRFSGSGSGTDYTLTISSLQPEDFATYYCQQGNTLPRTFGGGTKVEIKRTVAAPSVFIFPPSDEQLKSGTASVVCLLNNFYPREAKVQWKVDNALQSGNSQESVTEQDSKDSTYSLSSTLTLSKADYEKHKVYACEVTHQGLSSPVTKSFNRGEC
notes: Purified from CHO cells; monovalent for aC1s

Tests used:
[1] = biological target: T3, His-tagged recombinant human TfR (produced in-house) (human, UniProt P02786 89-760); experiment: hTfR affinity, SPR (method not restated for Table 1; same value as Table 2)
T3 construct: also called hTfR; transferrin receptor 1
Method: (§1) TfR and C1s binding using surface plasmon resonance (SPR): Analysis of antibody binding to TfR was performed on a Biacore™ T200 instrument using anti-His capture at 25° C. Anti-His (Qiagen) was buffer exchanged into PBS pH 7.2, diluted to 25 μg/mL in 10 mM sodium acetate pH 4.0 and directly immobilized to a series S CM5 chip to a surface density of ˜10,000 RU using the amine coupling kit provided by Cytiva. His-tagged recombinant human TfR (produced in-house) was diluted in HBS-EP+ pH 7.4 running buffer (10 mM HEPES pH 7.4, 150 mM NaCl, 3 mM EDTA, 0.05% surfactant P20) and injected for 5 sec at 20 μL/min flowrate to obtain capture level of 20 RU. Antibodies were serially diluted 2-fold from 90 to 5.625 nM in running buffer and injected over the captured TfR for 3 min followed by 9 min dissociation in buffer at 30 μL/min. Each cycle was regenerated with 10 mM glycine pH 1.5. To measure C1s binding, anti-human Fc (Jackson) was directly immobilized to a CM5 chip using amine chemistry. Antibodies were diluted to 2.5 μg/mL in HBS-EP+ pH 7.4 and captured to the chip for 15 sec at 20 μL/min flowrate. Human active C1s (Complement Technology) was serially diluted 2-fold from 20 to 0.625 nM in running buffer and injected over the captured antibodies for 180 sec at 50 μL/min followed by 9 min dissociation in buffer. The bound complex was removed from the chip each cycle with 40 mM HCl and 0.85% phosphoric acid. Sensorgrams were processed using the Biacore™ Insight software and fit to a 1:1 binding model to obtain kinetic constants.
(§2) The six bispecific anti-aC1s/anti-TfR antibodies were first tested for their affinity for both TfR and aC1s via surface plasmon resonance (SPR) (Table 2).

[2] = biological target: T1, Human active C1s (Complement Technology); experiment: cell-based or functional assay
[3] = biological target: T1, Human active C1s (Complement Technology); experiment: cell-based or functional assay; remark: listed apart in the source
[4] = biological target: T3, His-tagged recombinant human TfR …; experiment: SPR Biacore T200, His-tagged human TfR captured on anti-His, antibody as analyte, 25 C, 1:1 fit
Method: as §1, §2

[5] = biological target: T1, Human active C1s (Complement Technology); experiment: SPR Biacore T200, antibody captured on anti-human Fc, human active C1s as analyte, 1:1 fit
Method: as §1, §2

[6] = biological target: T3, His-tagged recombinant human TfR …; experiment: SPR Biacore T200 (Table 2)
Method: as §1, with “The bound complex was removed from the chip each cycle with 40 mM HCl and 0.85% phosphoric acid. Sensorgrams were processed using the Biacore™ Insight software and fit to a 1:1 binding model to obtain kinetic constants.” left out

[7] = biological target: T1, Human active C1s (Complement Technology); experiment: cell-based or functional assay; remark: listed apart in the source
cynomolgus TfR = biological target: T4, cynomolgus TfR (cynomolgus, UniProt H9EXL1 89-760 (rhesus entry)); experiment: affinity of bispecific purified from CHO cells (SPR; details not restated)
T4 construct: also called Cyno TfR; cTfR

[8] = biological target: T3, His-tagged recombinant human TfR …; experiment: as above
cynomolgus aC1s = biological target: T2, cynomolgus aC1s; experiment: as above
[9] = biological target: T1, Human active C1s (Complement Technology); experiment: as above
[10] = biological target: T1, Human active C1s (Complement Technology); experiment: cell-based or functional assay; remark: listed apart in the source

T3 sequence (P02786 89-760 limits assumed): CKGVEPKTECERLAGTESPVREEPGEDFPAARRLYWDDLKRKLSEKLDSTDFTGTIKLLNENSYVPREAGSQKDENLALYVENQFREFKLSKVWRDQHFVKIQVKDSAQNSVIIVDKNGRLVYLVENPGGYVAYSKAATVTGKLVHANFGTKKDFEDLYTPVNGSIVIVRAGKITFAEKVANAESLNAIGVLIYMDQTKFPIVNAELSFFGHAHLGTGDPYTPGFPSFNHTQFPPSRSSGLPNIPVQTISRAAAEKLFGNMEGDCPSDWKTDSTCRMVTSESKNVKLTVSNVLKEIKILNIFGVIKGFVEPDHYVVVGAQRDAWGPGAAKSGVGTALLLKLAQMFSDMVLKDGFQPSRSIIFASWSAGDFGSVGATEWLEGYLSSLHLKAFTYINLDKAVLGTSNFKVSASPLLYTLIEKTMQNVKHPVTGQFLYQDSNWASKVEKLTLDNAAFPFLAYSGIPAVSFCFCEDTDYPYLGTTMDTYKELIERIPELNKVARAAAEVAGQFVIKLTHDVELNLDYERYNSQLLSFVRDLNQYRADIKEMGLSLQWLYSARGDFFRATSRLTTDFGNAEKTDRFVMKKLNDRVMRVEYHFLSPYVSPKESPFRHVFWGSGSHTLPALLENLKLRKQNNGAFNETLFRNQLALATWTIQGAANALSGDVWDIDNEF
T4 sequence (chain, as listed by the source): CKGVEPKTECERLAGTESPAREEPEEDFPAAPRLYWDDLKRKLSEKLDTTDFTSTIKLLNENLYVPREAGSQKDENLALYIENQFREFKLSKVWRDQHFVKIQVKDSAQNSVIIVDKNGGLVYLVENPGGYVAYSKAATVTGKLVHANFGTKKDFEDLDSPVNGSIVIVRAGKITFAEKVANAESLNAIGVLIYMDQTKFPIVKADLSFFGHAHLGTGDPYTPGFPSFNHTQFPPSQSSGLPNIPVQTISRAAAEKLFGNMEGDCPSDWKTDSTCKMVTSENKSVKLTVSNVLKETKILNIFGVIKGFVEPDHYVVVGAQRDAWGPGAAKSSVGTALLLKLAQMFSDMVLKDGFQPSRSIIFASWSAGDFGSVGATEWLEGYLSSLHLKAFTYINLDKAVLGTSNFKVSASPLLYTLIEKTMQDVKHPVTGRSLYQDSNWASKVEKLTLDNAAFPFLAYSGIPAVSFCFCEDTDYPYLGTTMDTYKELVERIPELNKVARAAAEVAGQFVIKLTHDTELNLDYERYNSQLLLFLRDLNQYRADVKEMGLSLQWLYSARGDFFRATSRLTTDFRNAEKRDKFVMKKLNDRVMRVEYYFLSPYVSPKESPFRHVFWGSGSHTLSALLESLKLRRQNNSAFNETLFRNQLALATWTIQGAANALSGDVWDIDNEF

Binder	Kd [1] [nM]	IC50, C3d deposition on neurons in iPSC tricultures with serum [2] [mg/L]	IC50, Wieslab Complement Pathway Assay (classical pathway, 1% NHS) [3] [mg/L]	Kd [4] [nM]	koff [4] [s⁻¹]	kon [4] [M⁻¹ s⁻¹]	Kd [5] [nM]	koff [5] [s⁻¹]	kon [5] [M⁻¹ s⁻¹]	fold higher affinity than the 531v25 and 531v25.v6 variants [6] [fold]	IC50, C3d deposition on neurons in iPSC tri-cultures with 3% serum [7] [mg/L]	Kd (cynomolgus TfR) [nM]	Kd [8] [nM]	Kd (cynomolgus aC1s) [nM]	Kd [9] [nM]	IC50, Wieslab Complement Pathway Assay [10] [mg/L]	IC90, Wieslab Complement Pathway Assay [10] [mg/L]
B1	22.6	29.3	1.63	22.6	0.00413	183000	0.75	0.00246	3.31e+06	–	–	–	–	–	–	–	–
B2	18.9	7.48	1.79	18.9	0.00304	161000	0.76	0.00273	3.59e+06	–	–	–	–	–	–	–	–
B3	–	13.9	1.67	10.3	0.00197	192000	0.66	0.00275	4.18e+06	~2	–	–	–	–	–	–	–
B4	9.65	16.2	1.67	9.65	0.00183	189000	0.79	0.00245	3.14e+06	~2	–	–	–	–	–	–	–
B5	–	–	–	–	–	–	–	–	–	–	23.5	43.7	28.6	0.248	3.31	1.08	7.6
